# Experimental data reported in US20260263364A1, “OSTEOCLAST-DERIVED MICROVESICLES AND METHODS OF PROMOTING BONE REGENERATION” (The United States Government as represented by the …, priority 2023, published 2026).
# Tested on: osteoclastic cells
# Experiment: Release of soluble EfnB2 into CM by osteoclastic cells (Western blots)
# Type: cell-based
# Source text: Regarding the EfnB2, EfnB2 on the plasma membrane of osteoclasts binds the EphB4 receptor on the cell surface of nearby osteoprogenitors to trigger the EfnB2-EphB4 bidirectional signaling, which on the one hand suppresses osteoclastic resorption through activation of the reverse signaling of EfnB2 in osteoclasts and on the other hand upregulates the EphB4 forward signaling in osteoblasts to stimulate osteoblast maturation and activity. However, this bidirectional signaling mechanism requires direct cell-cell contact between osteoclasts and osteoprogenitors. Given the fact that very few osteoblasts or progenitors are present at the remodeling site that could make direct contact with the resorbing osteoclast, this cell-cell contact-dependent bidirectional mechanism is unlikely a major mechanism for the coupled bone formation under normal situations. It also could not be responsible for the soluble osteoanabolic activity of osteoclasts. […] Treatment with EfnA4-fc or PTH increased its releases each by ~75% and the large majority of the released EfnB2 was associated with the MV fraction. As an initial test of the possibility that EfnB2 is a candidate for an osteoanabolic component, it was tested whether the osteogenic activity of CM or that of MV could be blocked by pretreatment with anti-EfnB2 antibody. […]
molecule,measurement,value
"PTH: used to increase bone turnover / stimulate bone remodeling (protein, UniProt P01270 32-115, looked up, Parathyroid hormone, used to increase bone turnover / stimulate bone remodeling) Parathyroid hormone: SVSEIQLMHNLGKHLNSMERVEWLRKKLQDVHNFVALGAPLAPRDAGSQRPRKKEDNVLVESHEKSLGEADKADVNVLTKAKSQ",increase of release of soluble EfnB2,~ 75%
